Test results as given in the supplement of paper PMC12764529.
± gives the half width of the 95% confidence interval.

Columns and labels:
[1] = folding stability dG unfold from trypsin proteolysis; higher = more stable
Procedure, shortened: (§1)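 K50 was inferred by Bayesian fitting of sequencing counts obtained after protease digestion of designed mini-proteins. Unfolding free energy was derived by comparison with a sequence-predicted unfolded-state K50 and a shared folded-state K50, for each protease or both combined. The mini-proteins were under 80 residues, had no cysteine, were carried in a PA-tagged cDNA display construct, and were kept only if AlphaFold2 dimer inter-PAE exceeded 15.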

[2] = folding stability dG unfold (combined trypsin and chymotrypsin); higher = more stable
Procedure, shortened: as §1

[3] = folding stability dG unfold from chymotrypsin proteolysis; higher = more stable
Procedure, shortened: as §1

SAGGSAGGSMTVTVRRVYFPPNLAEGMTVEELRKKLGVPDLPVLVVDVEVTLTPEELEALLKESAGGSAGGS [r12_178_TrMRF]
folding stability dG unfold [1]: 1.39 ± 0.041 kcal/mol
folding stability dG unfold [2]: 1.97 ± 0.05 kcal/mol
folding stability dG unfold [3]: 2.21 ± 0.036 kcal/mol

SAGGSAGGSMVEITFPPDLSEEEAEALAKELEEKYNKKVKITKVPPEIPVPLPQYDPTNWVEVSAGGSAGGS [r12_159_JUSTAS]
folding stability dG unfold [1]: -0.0502 ± 0.06 kcal/mol
folding stability dG unfold [2]: -0.108 ± 0.2 kcal/mol
folding stability dG unfold [3]: -0.0306 ± 0.11 kcal/mol

SAGGSAGGSMVFESTSVYTFPEQNTVVVTKTTTTVTKTPDGSSSVSTSTTTTVLTVPPPEPLVSAGGSAGGS [r12_277_JUSTAS]
folding stability dG unfold [1]: 2.64 ± 0.12 kcal/mol
folding stability dG unfold [2]: 2.85 ± 0.3 kcal/mol
folding stability dG unfold [3]: 3.64 ± 0.13 kcal/mol

SAGGSAGGSMVKTFPESEPGERVTRELILTPDSIEIVETVVKTDPATGKPVEEVLLRRSTLPLSAGGSAGGS [r12_70_JUSTAS]
folding stability dG unfold [1]: -0.747 ± 0.4 kcal/mol
folding stability dG unfold [2]: -0.353 ± 0.29 kcal/mol
folding stability dG unfold [3]: -0.315 ± 0.41 kcal/mol

SAGGSAGGSMVKVEVTTTYDPSSNKTTVTTTTTLTEGGGTVLGTKTTTTTTTISPTTPVTSVTSAGGSAGGS [r12_254_JUSTAS]
folding stability dG unfold [1]: 0.604 ± 0.031 kcal/mol
folding stability dG unfold [2]: 0.955 ± 0.042 kcal/mol
folding stability dG unfold [3]: 1.17 ± 0.015 kcal/mol

SAGGSAGGSMVYKVTVYIPESGETREFVDPGSEEEIKARVKELFPDPNVKVEITPIEASPELLSAGGSAGGS [r12_92_JUSTAS]
folding stability dG unfold [1]: 2.11 ± 0.042 kcal/mol
folding stability dG unfold [2]: 1.82 ± 0.045 kcal/mol
folding stability dG unfold [3]: 1.51 ± 0.051 kcal/mol

SAGGSAGGSMWIVRIEYENPDNGKTYTIPIFVPPEDAEEIAKEIAEQLPGIKDIKVEIYPLNDSAGGSAGGS [r12_757_TrROS]
folding stability dG unfold [1]: 1.52 ± 0.064 kcal/mol
folding stability dG unfold [2]: 2.03 ± 0.16 kcal/mol
folding stability dG unfold [3]: 2.22 ± 0.079 kcal/mol

SAGGSAGGSNKKKKTIMFTIKLDVPEGTPTAEEIADELKELSPNVEIDNIMFTPNEVYIMIKVSAGGSAGGS [r12_454_TrROS]
folding stability dG unfold [1]: 1.16 ± 0.077 kcal/mol
folding stability dG unfold [2]: 1.61 ± 0.18 kcal/mol
folding stability dG unfold [3]: 1.84 ± 0.062 kcal/mol

SAGGSAGGSNKPVYFRAKIRNPDGKPIGEIEIPAKFDSLEDARSFAENLAKDLPGYKVEIELVSAGGSAGGS [r20_201_TrROS]
folding stability dG unfold [1]: 2.061 ± 0.012 kcal/mol
folding stability dG unfold [2]: 1.77 ± 0.081 kcal/mol
folding stability dG unfold [3]: 1.38 ± 0.084 kcal/mol

SAGGSAGGSNLEEFLAKLPPDVEVVVDPETGTVLVRFPKTGTVAVFRVDAAEGKVELVEVKPVSAGGSAGGS [r12_82_TrMRF]
folding stability dG unfold [1]: 3.88 ± 0.11 kcal/mol
folding stability dG unfold [2]: 3.77 ± 0.073 kcal/mol
folding stability dG unfold [3]: 3.72 ± 0.049 kcal/mol

SAGGSAGGSNTITVFMKVDDPEDALDEISEEIRDLFPPGIEVEIQPEQNEDKRGWVQVTIEFKSAGGSAGGS [r20_122_TrROS]
folding stability dG unfold [1]: 1.04 ± 0.063 kcal/mol
folding stability dG unfold [2]: 1.02 ± 0.2 kcal/mol
folding stability dG unfold [3]: 1.15 ± 0.33 kcal/mol

SAGGSAGGSPDEGDPVKITILIMIMIPNENGEPYFIFIRVEITIDPKDNKIQITKIDEIYIFPSAGGSAGGS [r12_358_TrROS]
folding stability dG unfold [1]: 3.74 ± 0.16 kcal/mol
folding stability dG unfold [2]: 4.42 ± 0.12 kcal/mol
folding stability dG unfold [3]: 4.66 ± 0.1 kcal/mol

SAGGSAGGSPDLPELNIEPVSTLPDGSKIYRADVSPEAIARLKAANPAVTVEEHPDFLLLFLRESAGGSAGG [r6_395_JUSTAS]
folding stability dG unfold [1]: 0.475 ± 0.059 kcal/mol
folding stability dG unfold [2]: 0.565 ± 0.04 kcal/mol
folding stability dG unfold [3]: 0.666 ± 0.058 kcal/mol

SAGGSAGGSPESVTFPVGDYLVTVTRNPEDGSLTVTVYDPKTGKPIVLPPEVLAENPDLAENLSAGGSAGGS [r12_817_TrMRF]
folding stability dG unfold [1]: 3.14 ± 0.11 kcal/mol
folding stability dG unfold [2]: 2.68 ± 0.056 kcal/mol
folding stability dG unfold [3]: 2.35 ± 0.058 kcal/mol

SAGGSAGGSPGKPYVEVEFTFIAFFPDGWLWVMTMKIEIPPDNNEIKPDIEMERIPLPPGQFLSAGGSAGGS [r12_811_TrROS]
folding stability dG unfold [1]: 2.43 ± 0.05 kcal/mol
folding stability dG unfold [2]: 2.7 ± 0.08 kcal/mol
folding stability dG unfold [3]: 2.73 ± 0.066 kcal/mol

SAGGSAGGSPGMKPVEIPFRNPDGKNWKITSIYVMPDGPAMITIEDPNNGKERQIPAEDIDEFSAGGSAGGS [r12_488_TrROS]
folding stability dG unfold [1]: -0.911 ± 0.58 kcal/mol
folding stability dG unfold [2]: -0.136 ± 0.21 kcal/mol
folding stability dG unfold [3]: 0.227 ± 0.32 kcal/mol

SAGGSAGGSPGPGTEVEVRYRHPATGRWYPGVAVFTPDGSIRVYFPALGTTVTVPPHTVEPVPSAGGSAGGS [r12_726_TrMRF]
folding stability dG unfold [1]: 1.98 ± 0.056 kcal/mol
folding stability dG unfold [2]: 1.93 ± 0.053 kcal/mol
folding stability dG unfold [3]: 1.93 ± 0.031 kcal/mol

SAGGSAGGSPGTLIEVRFPDRIVRIYQLPPGVYRVEVYEPPYLVATIELPNVTAEEAARLALGSAGGSAGGS [r20_8_TrMRF]
folding stability dG unfold [1]: 1.61 ± 0.034 kcal/mol
folding stability dG unfold [2]: 2.72 ± 0.054 kcal/mol
folding stability dG unfold [3]: 3.071 ± 0.021 kcal/mol

SAGGSAGGSPIKIEFPPGIKEIEPIENDPNKTIMFRFPDYLVRIRINPKNGKIDIEIVPPGDMSAGGSAGGS [r12_858_TrROS]
folding stability dG unfold [1]: 1.94 ± 0.028 kcal/mol
folding stability dG unfold [2]: 1.82 ± 0.11 kcal/mol
folding stability dG unfold [3]: 1.9 ± 0.027 kcal/mol

SAGGSAGGSPKWKTIEITVLVPGMPAEEIAKNIANNFGIEITDIDVQLFPNGWVVVSATIRVKSAGGSAGGS [r12_359_TrROS]
folding stability dG unfold [1]: 2.59 ± 0.087 kcal/mol
folding stability dG unfold [2]: 2.99 ± 0.096 kcal/mol
folding stability dG unfold [3]: 3.16 ± 0.051 kcal/mol

SAGGSAGGSPLVKTTTSVDPVGPDRTLTTSTATLPSGGTTVTTTTFLTSPDGTVPVATTTTPSASAGGSAGG [r6_471_JUSTAS]
folding stability dG unfold [1]: -0.461 ± 0.15 kcal/mol
folding stability dG unfold [2]: -0.11 ± 0.21 kcal/mol
folding stability dG unfold [3]: 0.24 ± 0.14 kcal/mol

SAGGSAGGSPMKIEAVELEDGTVAYRLEDGTVLLVTKNEDGTYTVKVFKNGKLVEEKEIKLPPSAGGSAGGS [r12_451_TrROS_Hall]
folding stability dG unfold [1]: 2.28 ± 0.069 kcal/mol
folding stability dG unfold [2]: 2.99 ± 0.071 kcal/mol
folding stability dG unfold [3]: 3.277 ± 0.03 kcal/mol

SAGGSAGGSPNPKVVPFTFPVVIPDEDGHPYLVNVTVTAIPDTDTYYARITYPDGRVEDFVLASAGGSAGGS [r12_286_TrMRF]
folding stability dG unfold [1]: 1.94 ± 0.049 kcal/mol
folding stability dG unfold [2]: 2.33 ± 0.04 kcal/mol
folding stability dG unfold [3]: 2.494 ± 0.015 kcal/mol

SAGGSAGGSPPGWTIMMFEITISITVPRVEVYDPKDGKPRAEVPYVRVSIPIPIFIIFPAGAFSAGGSAGGS [r12_600_TrROS]
folding stability dG unfold [1]: 2.93 ± 0.17 kcal/mol
folding stability dG unfold [2]: 3.77 ± 0.11 kcal/mol
folding stability dG unfold [3]: 4.24 ± 0.12 kcal/mol

SAGGSAGGSPPNWKTIPITFWVDPGDVEEFANILRDLGLEIEDVEVEPNPDGHVWVTITIVIPSAGGSAGGS [r12_905_TrROS]
folding stability dG unfold [1]: 2.57 ± 0.17 kcal/mol
folding stability dG unfold [2]: 3.33 ± 0.18 kcal/mol
folding stability dG unfold [3]: 3.54 ± 0.1 kcal/mol

SAGGSAGGSPRIVRVEVDPPPGGLGLARIEVEVVDPSTGVPRLERRTVPVPLGDWKKLLDFLGSAGGSAGGS [r12_691_TrMRF]
folding stability dG unfold [1]: 2.06 ± 0.051 kcal/mol
folding stability dG unfold [2]: 2.23 ± 0.15 kcal/mol
folding stability dG unfold [3]: 2.25 ± 0.054 kcal/mol

SAGGSAGGSPVKDPDGKEVVPIQMTFIIRDPEMGKPVLITITFYIDPAPGGKIKDISIDIFPLSAGGSAGGS [r12_0_TrROS]
folding stability dG unfold [1]: 3.51 ± 0.27 kcal/mol
folding stability dG unfold [2]: 4.04 ± 0.17 kcal/mol
folding stability dG unfold [3]: 4.29 ± 0.17 kcal/mol

SAGGSAGGSPVLVRVYARDEDGNETPVAEIALPVENDNPEEAAKKAREIAKKLGVKEYRVEIESAGGSAGGS [r12_569_TrMRF]
folding stability dG unfold [1]: 1.37 ± 0.031 kcal/mol
folding stability dG unfold [2]: 1.48 ± 0.04 kcal/mol
folding stability dG unfold [3]: 1.56 ± 0.046 kcal/mol

SAGGSAGGSPVVVIEVPAEDLSPEDIKALLAAAPDENAVIVITNPDGEKRTLVFTPDGRIEPLSAGGSAGGS [r12_1054_TrROS_Hall]
folding stability dG unfold [1]: 0.681 ± 0.024 kcal/mol
folding stability dG unfold [2]: 0.593 ± 0.042 kcal/mol
folding stability dG unfold [3]: 0.451 ± 0.1 kcal/mol

SAGGSAGGSPWKKVKFKFMFPFPNYYVRISIEIWVNPGDNEIMIEMSIEIFPIPPGDNKAFKDSAGGSAGGS [r12_885_TrROS]
folding stability dG unfold [1]: 2.79 ± 0.24 kcal/mol
folding stability dG unfold [2]: 3.31 ± 0.36 kcal/mol
folding stability dG unfold [3]: 3.9 ± 0.11 kcal/mol

SAGGSAGGSPYKEVPVPVRIHSPDGETHEFPGTIWKSPDDGMLEIRFPGNGKKHKIPLNDIQISAGGSAGGS [r12_772_TrROS]
folding stability dG unfold [1]: -1.5 ± 0.59 kcal/mol
folding stability dG unfold [2]: -0.699 ± 0.22 kcal/mol
folding stability dG unfold [3]: -0.606 ± 0.19 kcal/mol

SAGGSAGGSPYLVTVTLPDGSTLTHTIPVPPDVPLSEEEIRERIRREYPGPPLGPITIERPTESAGGSAGGS [r12_262_JUSTAS]
folding stability dG unfold [1]: 0.885 ± 0.015 kcal/mol
folding stability dG unfold [2]: 1.35 ± 0.09 kcal/mol
folding stability dG unfold [3]: 1.62 ± 0.047 kcal/mol

SAGGSAGGSRLDATRALLDKLPPGSVTVTVYVNGKPVTFRFGSREEIEEAIEANPDVEVEIEPASAGGSAGG [r6_421_TrMRF]
folding stability dG unfold [1]: 0.93 ± 0.13 kcal/mol
folding stability dG unfold [2]: 1.38 ± 0.098 kcal/mol
folding stability dG unfold [3]: 1.74 ± 0.16 kcal/mol

SAGGSAGGSSAVVPLPDVVLVVLTFPDGGPPVLALLFPPTGRVVFVHPDSVTVAPFAPGGSLLSAGGSAGGS [r12_536_TrMRF]
folding stability dG unfold [1]: 1.1 ± 0.036 kcal/mol
folding stability dG unfold [2]: 1.51 ± 0.07 kcal/mol
folding stability dG unfold [3]: 1.74 ± 0.062 kcal/mol

SAGGSAGGSSFSVEVIENPDSDVILRKIHFDNFTVIPLFDPSTGKIVSVVVQFPDGSWYTFPLSAGGSAGGS [r12_563_TrMRF]
folding stability dG unfold [1]: 2.18 ± 0.1 kcal/mol
folding stability dG unfold [2]: 2.51 ± 0.11 kcal/mol
folding stability dG unfold [3]: 2.78 ± 0.053 kcal/mol

SAGGSAGGSSGKYTITVTRKNPDGTPLGVFPIEVEGESEEEAKALAEELKNQPDVVEVKVTYVDSAGGSAGG [r6_475_JUSTAS]
folding stability dG unfold [1]: 1.37 ± 0.027 kcal/mol
folding stability dG unfold [2]: 1.22 ± 0.048 kcal/mol
folding stability dG unfold [3]: 1.02 ± 0.054 kcal/mol
